In general, stoichiometry N refers to the number of molecules, sites or subunits per partner or assembly.

Experimental findings from publication PMC4359367, “DNA binding polarity, dimerization, and ATPase ring remodeling in the CMG helicase of the eukaryotic replisome” (eLife, 2014) are described below.

Sequences and labels used below:
T1: Mcm2 (Drosophila melanogaster, UniProt P49735 1-887)
T1 construct: Mcm2, Drosophila melanogaster, subunit of Mcm2-7; source: Hi5 cells, co-infection with baculoviruses; purified as part of the CMG (anti-FLAG agarose, Mono S, Mono Q) and in whole cell lysate
T1 sequence (looked up): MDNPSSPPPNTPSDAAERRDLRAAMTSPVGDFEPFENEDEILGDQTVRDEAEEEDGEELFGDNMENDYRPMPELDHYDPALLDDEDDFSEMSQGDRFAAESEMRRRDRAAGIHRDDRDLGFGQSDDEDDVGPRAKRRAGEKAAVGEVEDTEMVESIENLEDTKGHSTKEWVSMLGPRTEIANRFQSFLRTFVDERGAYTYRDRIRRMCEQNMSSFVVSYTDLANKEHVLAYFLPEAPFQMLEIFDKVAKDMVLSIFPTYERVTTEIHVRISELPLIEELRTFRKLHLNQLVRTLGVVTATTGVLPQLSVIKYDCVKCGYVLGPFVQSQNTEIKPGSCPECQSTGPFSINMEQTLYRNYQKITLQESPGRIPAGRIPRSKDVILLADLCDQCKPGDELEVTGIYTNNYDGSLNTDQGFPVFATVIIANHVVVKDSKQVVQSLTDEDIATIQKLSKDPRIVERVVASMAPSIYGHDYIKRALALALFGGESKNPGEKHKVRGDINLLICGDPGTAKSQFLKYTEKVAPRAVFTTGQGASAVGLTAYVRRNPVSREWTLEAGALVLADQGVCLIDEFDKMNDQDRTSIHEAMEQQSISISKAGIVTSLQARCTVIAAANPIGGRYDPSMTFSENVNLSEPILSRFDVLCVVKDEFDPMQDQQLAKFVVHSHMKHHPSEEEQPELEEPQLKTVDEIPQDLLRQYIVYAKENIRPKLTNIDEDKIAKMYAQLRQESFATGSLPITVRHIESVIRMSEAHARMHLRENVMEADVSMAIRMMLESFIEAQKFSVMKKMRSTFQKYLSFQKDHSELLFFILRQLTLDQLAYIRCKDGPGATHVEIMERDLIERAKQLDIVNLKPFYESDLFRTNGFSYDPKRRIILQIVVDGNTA

T2: Mcm5 (Drosophila melanogaster, UniProt Q9VGW6 1-733)
T2 construct: Mcm5, Drosophila melanogaster, subunit of Mcm2-7; source: Hi5 cells, co-infection with baculoviruses; purified as part of the CMG (anti-FLAG agarose, Mono S, Mono Q) and in whole cell lysate
T2 sequence (looked up): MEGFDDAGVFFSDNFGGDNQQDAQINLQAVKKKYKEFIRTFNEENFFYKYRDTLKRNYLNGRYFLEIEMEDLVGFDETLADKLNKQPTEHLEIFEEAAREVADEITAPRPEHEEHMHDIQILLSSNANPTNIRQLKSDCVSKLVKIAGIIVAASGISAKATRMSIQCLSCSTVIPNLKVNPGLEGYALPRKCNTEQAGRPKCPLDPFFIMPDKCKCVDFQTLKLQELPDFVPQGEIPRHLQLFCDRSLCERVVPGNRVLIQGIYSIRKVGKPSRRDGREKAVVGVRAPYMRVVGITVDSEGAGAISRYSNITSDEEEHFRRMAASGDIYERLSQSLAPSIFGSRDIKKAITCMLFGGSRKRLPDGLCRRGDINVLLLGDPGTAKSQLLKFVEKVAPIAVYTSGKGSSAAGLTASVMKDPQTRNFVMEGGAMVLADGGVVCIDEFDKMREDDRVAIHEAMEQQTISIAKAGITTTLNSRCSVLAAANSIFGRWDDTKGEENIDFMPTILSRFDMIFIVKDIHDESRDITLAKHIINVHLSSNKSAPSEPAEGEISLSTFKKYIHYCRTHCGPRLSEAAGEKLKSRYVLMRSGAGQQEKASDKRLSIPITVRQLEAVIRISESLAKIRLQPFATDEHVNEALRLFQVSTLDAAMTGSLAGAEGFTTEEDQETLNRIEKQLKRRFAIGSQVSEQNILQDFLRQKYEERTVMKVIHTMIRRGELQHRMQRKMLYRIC

B1: Cdc45 (natural protein, Drosophila melanogaster, UniProt O96989 1-575, looked up)
chain: MFVQDLRNDFYRQLVGKRILIVVNYDIDAICASRILQALFKYDHMLYTVVPIMGVTGLKRAYGEHQGDVKYVVLVNCGGCVDIVELLQPSDDVTFFICDSHRPLDVCNIYSDRQVCILGDASLEENIPAFETIFYDSEGEDEDEDESSDTEQQHDDSGAGESDQEDQAPRSRKLSRLERHEQRILKQRARRQWESERDRIMFEYTQFSYYGRSAALMVFELAWKLSKDNMDLLWWAIVGITEQLLLGKIESGAYTLELEQIQSHVSRLTNKTNDQNTMSASKITFENDLHLVLYRHWPVTESMRYSRYSSCQLKLWTLRGEKRLHELLLEMGLPLVHARQTYGAMDLVLRKEFFSMVERLAEKYDIADIVYGTFTLSYGYRSRYAAADYVYALLAIMESVKKHKTPEDCFLEASDALSRQHKQLLSAGIDQAKLLHAAVFRQVQSSLEARQVHSAGSFFYYVLQEEHAFFSYPYALGLLARFLLRGHVATSRARQASDLPLIASCPLNASEGMCLLVGIVPVREDSPRNFFGKAFEQAAQKSGVALLQDFFEPAVVQLRQSDLTRFLDSLTVLLA
notes: Cdc45, Drosophila melanogaster; also called DmCdc45; source: Hi5 cells, co-infection with baculoviruses; purified as part of the CMG (anti-FLAG agarose, Mono S, Mono Q) and in whole cell lysate
B2: Psf1 (natural protein, Drosophila melanogaster, UniProt Q9W0I7 1-202, looked up)
chain: MSRQTKMFGEKAFDLLKELERSSQTIPAFDDDGVRQVLEEIKAIFEENVAQASSYNASGDRSLWPLLNFRHAALQRNKRCLLAYLYERCRRIKALRWEFGPIIPGDIKQALCEPEVTFFNNYSKSLAAYMCSAGYNQGLPIDLTNNLRPPKSLYIEVRCMEDYGKFELDDGEVIHLKKNSQHYLPRAQVESLVRQGILHHIA
notes: Psf1, Drosophila melanogaster, subunit of GINS; the printed B-domain region 185-202 ends at the C-terminus; source: Hi5 cells, co-infection with baculoviruses; purified as part of the CMG (anti-FLAG agarose, Mono S, Mono Q) and in whole cell lysate

For assay [1], the target named is Cdc45/Mcm2-7/GINS (CMG) helicase (Drosophila melanogaster) (UniProt P49735). Nature of the assay: negative-stain EM, reference-free 2D class averages; purified CMG with 3'-tailed DNA and ATPγS; dimeric particles compared with 2D projections of double-hexamer models in six registers.
The next assay addresses T1, Mcm2. Put plainly: negative-stain EM single-particle reconstruction; purified CMG mixed with a 20 bp duplex DNA bearing a 3' dT40 tail and 0.1 mM ATPγS, Superose 6 peak fraction, uranyl formate stain; 18 Å map; crystal structures and homology models docked. As to conditions: both partners purified.
In the next assay the target is T2, Mcm5. The description is as above. As to conditions: both partners purified.
The assay “Cdc45” addresses B1. The description is as above. The note with it: both partners purified.

As for “Cdc45/Mcm2-7/GINS (CMG) helicase (from UniProt P49735 1-887; Q9XYU1 1-819; Q26454 1-866; Q9VGW6 1-733; Q9V461 1-817; Q9XYU0 1-720; Q9W0I7 1-202; Q9VQY9 1-203; Q9VBI1 1-228; O96989 1-575) (complex)”, in assay [1], the percent of CMG particles in dimers is 5% and the stoichiometry N is 2.
B1: the binding result with Mcm2 and with Mcm5 was “binds” each time.
For B2, the binding result with Cdc45 is reported as “binds”.
